Laboratory results published in ChEMBL document CHEMBL1146070, “Investigating the role of stereochemistry in the activity of anticancer acylfulvenes: synthesis, reductase-mediated bioactivation, and cellular toxicity” (J Med Chem, 2006).

Key:
[1] = substrate: CC1=CC2=C(C)C3(CC3)[C@@](C)(O)C(=O)C2=C1; test: (§1) Affinity towards rat NADP-dependent AOR, leukotriene B4 12-hydroxydehydrogenase
[2] = substrate: CC1=CC2=C(C)C3(CC3)[C@](C)(O)C(=O)C2=C1; test: as §1
[3] = substrate: CC1=C(CO)C2=C(C)C3(CC3)[C@](C)(O)C(=O)C2=C1; test: as §1
[4] = substrate: CC1=C(CO)C2=C(C)C3(CC3)[C@@](C)(O)C(=O)C2=C1; test: as §1

B1: Prostaglandin reductase 1 (Rattus norvegicus), P97584 (protein)
chain: MVQAKTWTLKKHFEGFPTDSNFELRTTELPPLNNGEVLLEALFLSVDPYMRVAAKKLKEGDSMMGEQVARVVESKNSAFPTGTIVVALLGWTSHSISDGNGLRKLPAEWPDKLPLSLALGTVGMPGLTAYFGLLDICGLKGGETVLVNAAAGAVGSVVGQIAKLKGCKVVGTAGSDEKVAYLKKLGFDVAFNYKTVKSLEEALRTASPDGYDCYFDNVGGEFSNTVILQMKTFGRIAICGAISQYNRTGPCPPGPSPEVIIYQQLRMEGFIVTRWQGEVRQKALTDLMNWVSEGKIRYHEYITEGFEKMPAAFMGMLKGDNLGKTIVKA
Km [1]: 538 µM
Km [2]: 465 µM
Km [3]: 243 µM
Km [4]: 213 µM
